Laboratory results as given in paper PMC4161341 (PLoS ONE, 2014).
Positions count from the first letter of the chain named.

B1: L1-H2 (VHH)
VHH: EVQLQASGGGLVQAGGSLRLSCAASGRTLSTGVMGWFRQLPGKEREFVARITWIAGSSLYADSVKGRFTISRDNTNNTVYLQMNALKPEDTAVYYCAANLAGNSWPYKTPMDYDSWGQGTQVTVSS
notes: llama sdAb of the L1-H2 family; also called sdAb L1-H2
B2: L1-C5 (VHH)
VHH: EVQLQASGGGLVQAGGSLRLSCIASGRAFSTTNMGWFRQAPGKEREFVTRVNWSGGVTSYADSVKGRFTLSRDYTKNTVYLQMNSLKPEDTAVYYCAGSTVWSTDRAHYNYWGQGTQVTVSS
notes: llama sdAb of the L1-H7 family; has a single N to Y substitution in framework 3 not seen in other members of the family; also called sdAb L1-C5
B3: L1-G2 (VHH)
VHH: B2 VHH with I23T, Y74N, N84D, A107K
notes: llama sdAb of the L1-H7 family; also called sdAb L1-G2
B4: L1-G2+ (VHH)
VHH: B2 VHH with I23T, T49C, L70C, Y74N, N84D, A107K
notes: also called disulfide mutant of L1-G2
B5: L1-E6 (VHH)
VHH: B2 VHH with S63P, Y74N, R106G
notes: llama sdAb of the L1-H7 family; also called sdAb L1-E6
B6: L1-H7 (VHH)
VHH: B2 VHH with Y74N, Q114R
notes: llama sdAb of the L1-H7 family; also called sdAb L1-H7
B7: L1-E2 (VHH)
VHH: EVQLQASGGGLVQPGGSLRLSCAASGFSISSATMSWVRQAPGKGLEWVSTVQDGAGIISSADSAKARFTISRDSAKNTLYLQMNSLKPEDTAVYYCRTVVFGRILRGQGTQVTVSS
notes: llama sdAb, only member of the L1-E2 family; also called sdAb L1-E2

Target: T1, Vaccinia Virus, Western Reserve, L1R Protein with C-Terminal Histidine Tag (Vaccinia virus, strain Western Reserve, UniProt P07612)
T1 construct: also called L1 antigen; recombinant L1 antigen; source: obtained through BEI Resources (NR-2625), recombinant from baculovirus
Experiment: SPR; […] (10 µg/ml, […], dissociation 600 s; […]
Details: both partners purified

| Binder | Kd [nM] | koff [s⁻¹] | kon [M⁻¹ s⁻¹] |
| --- | --- | --- | --- |
| B1 | 1.8 | 0.0021 | 1.2e+06 |
| B2 | 4 | 0.032 | 7.2e+06 |
| B3 | 1.9 | 0.001 | 530000 |
| B4 | 1 | 0.0021 | 2.1e+06 |
| B5 | 2.6 | 0.001 | 390000 |
| B6 | 1.5 | 0.00087 | 560000 |
| B7 | 0.7 | 0.0045 | 6.5e+06 |
